# B1: sLUR-517GFP (domain or fragment, human, UniProt Q14160 1-517, looked up)
# chain: MLKCIPLWRCNRHVESVDKRHCSLQAVPEEIYRYSRSLEELLLDANQLRELPKPFFRLLNLRKLGLSDNEIQRLPPEVANFMQLVELDVSRNDIPEIPESIKFCKALEIADFSGNPLSRLPDGFTQLRSLAHLALNDVSLQALPGDVGNLANLVTLELRENLLKSLPASLSFLVKLEQLDLGGNDLEVLPDTLGALPNLRELWLDRNQLSALPPELGNLRRLVCLDVSENRLEELPAELGGLVLLTDLLLSQNLLRRLPDGIGQLKQLSILKVDQNRLCEVTEAIGDCENLSELILTENLLMALPRSLGKLTKLTNLNVDRNHLEALPPEIGGCVALSVLSLRDNRLAVLPPELAHTTELHVLDVAGNRLQSLPFALTHLNLKALWLAENQAQPMLRFQTEDDARTGEKVLTCYLLPQQPPPSLEDAGQQGSLSETWSDAPPSRVSVIQFLEAPIGDEDAEEAAAEKRGLQRRATPHPSELKVMKRSIEGRRSEACPCQPDSGSPLPAEEEKRLSAE
# notes: Scribble, LAP unique region (sLUR): LRR domain of 17 LRRs, LAPSDa and LAPSDb; the discussion calls the tag mGFP; also called full-length sLUR; source: DLD20-2 cells (LAP protein-deficient DLD1), transfected clones, in lysate
# Target: the molecule itself
# Test: native gel or EMSA; BN-PAGE (Native-PAGE Novex Bis-Tris) of 1% Triton X-100 lysates of DLD20-2 cells expressing the tagged protein, no cross-linking; blot probed for GFP
protein,measurement,value
B1,stoichiometry N,2
